Laboratory results taken from IntAct's records for PubMed 9845372.

B1: Double-strand break repair protein MRE11 (Saccharomyces cerevisiae), P32829 (parent)
chain: MDYPDPDTIRILITTDNHVGYNENDPITGDDSWKTFHEVMMLAKNNNVDMVVQSGDLFHVNKPSKKSLYQVLKTLRLCCMGDKPCELELLSDPSQVFHYDEFTNVNYEDPNFNISIPVFGISGNHDDASGDSLLCPMDILHATGLINHFGKVIESDKIKVVPLLFQKGSTKLALYGLAAVRDERLFRTFKDGGVTFEVPTMREGEWFNLMCVHQNHTGHTNTAFLPEQFLPDFLDMVIWGHEHECIPNLVHNPIKNFDVLQPGSSVATSLCEAEAQPKYVFILDIKYGEAPKMTPIPLETIRTFKMKSISLQDVPHLRPHDKDATSKYLIEQVEEMIRDANEETKQKLADDGEGDMVAELPKPLIRLRVDYSAPSNTQSPIDYQVENPRRFSNRFVGRVANGNNVVQFYKKRSPVTRSKKSGINGTSISDRDVEKLFSESGGELEVQTLVNDLLNKMQLSLLPEVGLNEAVKKFVDKDEKTALKEFISHEISNEVGILSTNEEFLRTDDAEEMKALIKQVKRANSVRPTPPKENDETNFAFNGNGLDSFRSSNREVRTGSPDITQSHVDNESRITHISQAESSKPTSKPKRVRTATKKKIPAFSDSTVISDAENELGDNNDAQDDVDIDENDIIMVSTDEEDASYGLLNGRKTKTKTRPAASTKTASRRGKGRASRTPKTDILGSLLAKKRK
partner: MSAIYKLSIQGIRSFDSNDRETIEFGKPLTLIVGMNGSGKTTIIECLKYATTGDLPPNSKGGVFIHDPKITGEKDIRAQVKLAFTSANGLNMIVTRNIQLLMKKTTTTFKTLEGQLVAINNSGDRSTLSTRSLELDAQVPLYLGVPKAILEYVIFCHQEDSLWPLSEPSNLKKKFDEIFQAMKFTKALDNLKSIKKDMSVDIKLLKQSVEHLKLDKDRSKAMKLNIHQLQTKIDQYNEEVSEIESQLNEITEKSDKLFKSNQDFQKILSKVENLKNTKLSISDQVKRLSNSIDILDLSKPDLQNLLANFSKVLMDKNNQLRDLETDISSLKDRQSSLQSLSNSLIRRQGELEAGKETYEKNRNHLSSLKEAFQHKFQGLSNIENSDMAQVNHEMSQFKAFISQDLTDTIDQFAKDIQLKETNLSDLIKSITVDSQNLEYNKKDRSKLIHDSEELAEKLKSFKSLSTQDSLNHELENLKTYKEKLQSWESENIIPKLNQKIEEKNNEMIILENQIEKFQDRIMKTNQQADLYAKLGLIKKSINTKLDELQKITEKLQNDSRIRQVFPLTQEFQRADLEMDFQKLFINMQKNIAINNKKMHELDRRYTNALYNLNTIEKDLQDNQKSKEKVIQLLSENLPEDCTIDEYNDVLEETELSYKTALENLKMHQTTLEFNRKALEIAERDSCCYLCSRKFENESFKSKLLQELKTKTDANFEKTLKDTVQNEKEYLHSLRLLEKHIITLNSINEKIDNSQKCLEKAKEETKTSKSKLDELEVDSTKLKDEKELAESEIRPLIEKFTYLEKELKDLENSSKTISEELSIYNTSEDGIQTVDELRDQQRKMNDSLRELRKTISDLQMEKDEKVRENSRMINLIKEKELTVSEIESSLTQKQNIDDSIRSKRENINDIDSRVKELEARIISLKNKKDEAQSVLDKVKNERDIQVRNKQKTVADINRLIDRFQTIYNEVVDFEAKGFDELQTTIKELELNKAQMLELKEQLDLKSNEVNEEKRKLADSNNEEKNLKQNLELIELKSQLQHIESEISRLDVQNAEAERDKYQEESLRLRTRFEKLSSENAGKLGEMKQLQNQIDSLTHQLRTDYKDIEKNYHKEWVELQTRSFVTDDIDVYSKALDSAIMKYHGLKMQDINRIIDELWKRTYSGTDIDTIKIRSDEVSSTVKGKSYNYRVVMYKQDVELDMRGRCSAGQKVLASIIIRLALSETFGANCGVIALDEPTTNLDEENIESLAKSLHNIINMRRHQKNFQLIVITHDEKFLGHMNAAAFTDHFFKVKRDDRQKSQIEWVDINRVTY

Variants of: B1
Details: with rad50_yeast RAD50, P12753

Variant	effect of a mutation on the interaction
H213Y;L225I	disrupting interaction
